Data as given in PMC3237458 (2011).
Square brackets hold non-standard residues; d marks the D form. Ends that are not written are not given here. * marks the point of attachment. Biotin = O=C1N[C@H]2[C@H](CS[C@H]2CCCCC(=O)*)N1; Ahx = NCCCCCC(=O)O

T1: mouse EphB4 AP (mouse, UniProt P54761 16-539)
T1 chain: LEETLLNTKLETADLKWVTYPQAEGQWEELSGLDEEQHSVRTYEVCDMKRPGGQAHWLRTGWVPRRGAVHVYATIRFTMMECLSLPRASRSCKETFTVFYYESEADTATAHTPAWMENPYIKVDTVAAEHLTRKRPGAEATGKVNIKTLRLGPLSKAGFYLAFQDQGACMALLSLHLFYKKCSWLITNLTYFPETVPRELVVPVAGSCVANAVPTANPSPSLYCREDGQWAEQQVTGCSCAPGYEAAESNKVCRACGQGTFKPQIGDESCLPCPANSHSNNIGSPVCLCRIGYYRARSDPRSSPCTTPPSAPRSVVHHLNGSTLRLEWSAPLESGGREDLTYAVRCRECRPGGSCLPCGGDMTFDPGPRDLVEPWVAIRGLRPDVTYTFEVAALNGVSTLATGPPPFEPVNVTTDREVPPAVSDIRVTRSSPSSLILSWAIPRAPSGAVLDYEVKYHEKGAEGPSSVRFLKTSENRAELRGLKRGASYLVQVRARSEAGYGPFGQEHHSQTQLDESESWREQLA

T2: EphB4 Fc (UniProt P54761 16-539)
T2 chain: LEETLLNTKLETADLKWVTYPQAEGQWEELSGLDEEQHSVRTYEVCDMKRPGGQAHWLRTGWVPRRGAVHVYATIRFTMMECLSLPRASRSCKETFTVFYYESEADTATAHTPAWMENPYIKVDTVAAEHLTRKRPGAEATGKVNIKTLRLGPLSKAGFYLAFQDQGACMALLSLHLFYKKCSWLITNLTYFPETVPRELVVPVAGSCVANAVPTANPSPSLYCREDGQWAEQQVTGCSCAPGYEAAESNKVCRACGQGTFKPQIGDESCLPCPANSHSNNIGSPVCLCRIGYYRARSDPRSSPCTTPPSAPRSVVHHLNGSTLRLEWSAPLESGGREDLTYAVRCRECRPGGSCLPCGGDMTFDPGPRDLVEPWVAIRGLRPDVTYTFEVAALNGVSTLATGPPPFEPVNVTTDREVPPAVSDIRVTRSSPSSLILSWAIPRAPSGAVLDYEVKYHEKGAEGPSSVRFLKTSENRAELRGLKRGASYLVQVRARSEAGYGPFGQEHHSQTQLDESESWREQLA


Columns and labels:
mouse EphB4 AP = target: T1, mouse EphB4 AP; test: ELISA
EphB4 Fc [1] = target: T2, EphB4 Fc; test: ELISA
EphB4 Fc [2] = target: T2, EphB4 Fc; test: ELISA; competition with ephrin-B2 AP

Row | Kd (mouse EphB4 AP) | Kd (EphB4 Fc [1]) | IC50 (EphB4 Fc [2]) | Binder
1 | 11 nM | 2.7 nM | – | TNYLFSPNGPIARAW[Ahx]K(Biotin) [biotinylated TNYL-RAW peptide]
2 | – | – | 13 nM | TNYLFSPNGPIARAW [TNYL-RAW peptide]

Continued, binder first:

Row | Binder | Kd (mouse EphB4 AP) | Kd (EphB4 Fc [1]) | IC50 (EphB4 Fc [2])
3 | {PEG 40 kDa branched (NHS-glutaryl)}-TNYLFSPNGPIARAW [PEGylated TNYL-RAW (PEG-TNYL-RAW)] | – | 2.9 nM | 24 nM
4 | TNYLFSPNGPIARAWGSGSK (Fc fusion) [TNYL-RAW fused with human Fc (TNYL-RAW-Fc)] | 4.7 nM | – | 6.5 nM
